Reference: patent US20170058030A1

Experiments:
[1] = biological target: FcγRIIb-GST (human) (UniProt P31994); assay: SPR, IgG on chip, dimeric FcγRIIB, bivalent fit
[2] = biological target: FcγRI-His (human) (UniProt P12314); assay: SPR, IgG on chip, 200 nM monomeric FcγRI
[3] = biological target: FcγRIIIa-F158-GST (human) (UniProt P08637); assay: ELISA, IgG coated, 200 nM receptor
[4] = biological target: FcγRIIa-R131-GST (human) (UniProt P12318); assay: ELISA, IgG coated, 200 nM receptor
[5] = biological target: FcγRIIIa-V158-GST (human) (UniProt P08637); assay: ELISA, IgG coated, 200 nM receptor
[6] = biological target: FcγRIIa-H131-GST (human) (UniProt P12318); assay: ELISA, IgG coated, 200 nM receptor
[7] = biological target: FcγRI-His (human) (UniProt P12314); assay: ELISA, IgG coated, 60 nM FcγRI
[8] = biological target: FcγRIIb-GST (human) (UniProt P31994); assay: ELISA, IgG coated, 60 nM receptor
[9] = biological target: FcγRIIb-GST (human) (UniProt P31994); assay: SPR, IgG on chip, dimeric FcγRIIB, bivalent fit, KD = KD1/(1 + 1/KD2)
[10] = biological target: FcγRIIb-GST (human) (UniProt P31994); assay: FACS on spheroplasts, 400 nM FcγRIIB-GST
[11] = biological target: FcγRIIb-GST (human) (UniProt P31994); assay: FACS on spheroplasts, 400 nM FcγRIIB-GST; remark: listed apart in the source
[12] = biological target: FcγRIIA (H131 and R131)-GST (human) (UniProt P12318); assay: FACS on spheroplasts, 400 nM FcγRIIA-GST
[13] = biological target: FcγRIIb-GST (human) (UniProt P31994); assay: FACS on spheroplasts, 100 nM FcγRIIb-GST-PE
[14] = biological target: FcγRIIa-R131-GST (human) (UniProt P12318); assay: ELISA: antibody coated on the plate, receptor titrated in 5-fold steps, HRP-labelled secondary antibody, absorbance at 450 nm
[15] = biological target: FcγRIIa-H131-GST (human) (UniProt P12318); assay: as above
[16] = biological target: mFcγRII-His (mouse)
[17] = biological target: mFcγRIII-His (mouse) (UniProt P08508)
[18] = biological target: FcγRIIIa-V158-GST (human) (UniProt P08637); assay: ELISA, STPK-Fc coated, receptor titrated
[19] = biological target: mFcγRIII-His (mouse) (UniProt P08508); assay: FACS on spheroplasts, 1 µM mFcγRIII, anti-His-PE
[20] = biological target: mFcγRI-His (mouse) (UniProt P08101); assay: FACS on spheroplasts, 1 µM mFcγRI, anti-His-PE
[21] = biological target: mFcγRIV-His (mouse); assay: FACS on spheroplasts, 1 µM mFcγRIV, anti-His-PE
[22] = biological target: mFcγRII-His (mouse); assay: FACS on spheroplasts, 100 nM b-mFcγRII, SA-PE

## Rituximab (glycosylated, wild-type IgG1 Fc) (antibody)
[1]
  kD1: 8.69e-06
  kD2: 13.1
[2]
  RUmax: 260 RU
[3]
  absorbance at 450 nm: 0.203
[4]
  absorbance at 450 nm: 1.44
[5]
  absorbance at 450 nm: 0.848
[6]
  absorbance at 450 nm: 2.35
[7]
  absorbance at 450 nm: 1.51
[8]
  absorbance at 450 nm: 0.183
[9]
  Kd: 8.07 µM

## wild-type aglycosylated IgG1 displayed on E. coli spheroplasts (antibody)
[10]
  MFI: 11.1
[11]
  MFI: 14
[12]
  MFI: 40.9
[13]
  MFI: 23.5

## glycosylated wild type IgG1 (control of Example 10) (antibody)
[14]
  EC50 (read off the curve): 0.01 µM
[15]
  EC50 (read off the curve): 0.04 µM

## STPK-mFc (from UniProt P00779 27-440) (Fc fusion)
[16]
  Kd: 16.1 µM
[17]
  Kd: 14.9 µM
[18]
  IC50: > 0.3 µM

## wild-type aglycosylated mIgG1 displayed on E. coli spheroplasts (antibody)
[19]
  MFI: 143
[20]
  MFI: 515
[21]
  MFI: 155
[22]
  MFI: 61.8
